Measured values as given in US20210388087A1 (Chugai, published 2021).

Molecular target: T1, Human CD137 ECD (human)
T1 construct: entry includes C-terminal His-tag and biotin acceptor peptide; also called human CD137 extracellular domain; 4-1BB
Assay: Biacore SPR, vs parent H183/L072

T1 sequence (chain, as listed by the source limits assumed): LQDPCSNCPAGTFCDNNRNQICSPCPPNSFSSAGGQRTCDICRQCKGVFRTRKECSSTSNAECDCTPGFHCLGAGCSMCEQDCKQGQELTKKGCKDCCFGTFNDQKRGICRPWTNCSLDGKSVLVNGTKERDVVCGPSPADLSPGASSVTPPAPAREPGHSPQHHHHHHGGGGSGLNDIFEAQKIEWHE

| Binder | fold change of affinity [fold] |
| --- | --- |
| H183/L072 VL A89H (antibody, name in Kabat numbering, V domains shown, Dual-Ig) VH: QVQLVESGGGLVQPGRSLRLSCAASGFTFSNAWMHWVRQAPGKGLEWVAQIKDKGNAYAAYYAPSVKGRFTISRDDSKNSIYLQMNSLKTEDTAVYYCHYVHYASASTVLPAFGVDAWGQGTTVTVSS VL: DIVMTQSPLSLPVTPGEPASISCQASQELVHMNRNTYLHWYQQKPGQAPRLLIYKVSNRFPGVPDRFSGSGSGTDFTLKISRVEAEDVGVYYCHQGTSVPFTFGQGTKLEIK | 0 |
| H183/L072 VL A89N (antibody, name in Kabat numbering, V domains shown, Dual-Ig) VH: QVQLVESGGGLVQPGRSLRLSCAASGFTFSNAWMHWVRQAPGKGLEWVAQIKDKGNAYAAYYAPSVKGRFTISRDDSKNSIYLQMNSLKTEDTAVYYCHYVHYASASTVLPAFGVDAWGQGTTVTVSS VL: DIVMTQSPLSLPVTPGEPASISCQASQELVHMNRNTYLHWYQQKPGQAPRLLIYKVSNRFPGVPDRFSGSGSGTDFTLKISRVEAEDVGVYYCNQGTSVPFTFGQGTKLEIK | 0 |
| H183/L072 VL A89T (antibody, name in Kabat numbering, V domains shown, Dual-Ig) VH: QVQLVESGGGLVQPGRSLRLSCAASGFTFSNAWMHWVRQAPGKGLEWVAQIKDKGNAYAAYYAPSVKGRFTISRDDSKNSIYLQMNSLKTEDTAVYYCHYVHYASASTVLPAFGVDAWGQGTTVTVSS VL: DIVMTQSPLSLPVTPGEPASISCQASQELVHMNRNTYLHWYQQKPGQAPRLLIYKVSNRFPGVPDRFSGSGSGTDFTLKISRVEAEDVGVYYCTQGTSVPFTFGQGTKLEIK | 0 |
| H183/L072 VL A89L (antibody, name in Kabat numbering, V domains shown, Dual-Ig) VH: QVQLVESGGGLVQPGRSLRLSCAASGFTFSNAWMHWVRQAPGKGLEWVAQIKDKGNAYAAYYAPSVKGRFTISRDDSKNSIYLQMNSLKTEDTAVYYCHYVHYASASTVLPAFGVDAWGQGTTVTVSS VL: DIVMTQSPLSLPVTPGEPASISCQASQELVHMNRNTYLHWYQQKPGQAPRLLIYKVSNRFPGVPDRFSGSGSGTDFTLKISRVEAEDVGVYYCLQGTSVPFTFGQGTKLEIK | 0 |
| H183/L072 VL E27aG (antibody, name in Kabat numbering, V domains shown, Dual-Ig) VH: QVQLVESGGGLVQPGRSLRLSCAASGFTFSNAWMHWVRQAPGKGLEWVAQIKDKGNAYAAYYAPSVKGRFTISRDDSKNSIYLQMNSLKTEDTAVYYCHYVHYASASTVLPAFGVDAWGQGTTVTVSS VL: DIVMTQSPLSLPVTPGEPASISCQASQGLVHMNRNTYLHWYQQKPGQAPRLLIYKVSNRFPGVPDRFSGSGSGTDFTLKISRVEAEDVGVYYCAQGTSVPFTFGQGTKLEIK | 1 |
| H183/L072 VL A89P (antibody, name in Kabat numbering, V domains shown, Dual-Ig) VH: QVQLVESGGGLVQPGRSLRLSCAASGFTFSNAWMHWVRQAPGKGLEWVAQIKDKGNAYAAYYAPSVKGRFTISRDDSKNSIYLQMNSLKTEDTAVYYCHYVHYASASTVLPAFGVDAWGQGTTVTVSS VL: DIVMTQSPLSLPVTPGEPASISCQASQELVHMNRNTYLHWYQQKPGQAPRLLIYKVSNRFPGVPDRFSGSGSGTDFTLKISRVEAEDVGVYYCPQGTSVPFTFGQGTKLEIK | 0 |
| H183/L072 VL E27aL (antibody, name in Kabat numbering, V domains shown, Dual-Ig) VH: QVQLVESGGGLVQPGRSLRLSCAASGFTFSNAWMHWVRQAPGKGLEWVAQIKDKGNAYAAYYAPSVKGRFTISRDDSKNSIYLQMNSLKTEDTAVYYCHYVHYASASTVLPAFGVDAWGQGTTVTVSS VL: DIVMTQSPLSLPVTPGEPASISCQASQLLVHMNRNTYLHWYQQKPGQAPRLLIYKVSNRFPGVPDRFSGSGSGTDFTLKISRVEAEDVGVYYCAQGTSVPFTFGQGTKLEIK | 0.9 |
| H183/L072 VL A89W (antibody, name in Kabat numbering, V domains shown, Dual-Ig) VH: QVQLVESGGGLVQPGRSLRLSCAASGFTFSNAWMHWVRQAPGKGLEWVAQIKDKGNAYAAYYAPSVKGRFTISRDDSKNSIYLQMNSLKTEDTAVYYCHYVHYASASTVLPAFGVDAWGQGTTVTVSS VL: DIVMTQSPLSLPVTPGEPASISCQASQELVHMNRNTYLHWYQQKPGQAPRLLIYKVSNRFPGVPDRFSGSGSGTDFTLKISRVEAEDVGVYYCWQGTSVPFTFGQGTKLEIK | 0 |
| H183/L072 VL E27aF (antibody, name in Kabat numbering, V domains shown, Dual-Ig) VH: QVQLVESGGGLVQPGRSLRLSCAASGFTFSNAWMHWVRQAPGKGLEWVAQIKDKGNAYAAYYAPSVKGRFTISRDDSKNSIYLQMNSLKTEDTAVYYCHYVHYASASTVLPAFGVDAWGQGTTVTVSS VL: DIVMTQSPLSLPVTPGEPASISCQASQFLVHMNRNTYLHWYQQKPGQAPRLLIYKVSNRFPGVPDRFSGSGSGTDFTLKISRVEAEDVGVYYCAQGTSVPFTFGQGTKLEIK | 1.1 |
| H183/L072 VL A89R (antibody, name in Kabat numbering, V domains shown, Dual-Ig) VH: QVQLVESGGGLVQPGRSLRLSCAASGFTFSNAWMHWVRQAPGKGLEWVAQIKDKGNAYAAYYAPSVKGRFTISRDDSKNSIYLQMNSLKTEDTAVYYCHYVHYASASTVLPAFGVDAWGQGTTVTVSS VL: DIVMTQSPLSLPVTPGEPASISCQASQELVHMNRNTYLHWYQQKPGQAPRLLIYKVSNRFPGVPDRFSGSGSGTDFTLKISRVEAEDVGVYYCRQGTSVPFTFGQGTKLEIK | 0 |
| H183/L072 VL A89I (antibody, name in Kabat numbering, V domains shown, Dual-Ig) VH: QVQLVESGGGLVQPGRSLRLSCAASGFTFSNAWMHWVRQAPGKGLEWVAQIKDKGNAYAAYYAPSVKGRFTISRDDSKNSIYLQMNSLKTEDTAVYYCHYVHYASASTVLPAFGVDAWGQGTTVTVSS VL: DIVMTQSPLSLPVTPGEPASISCQASQELVHMNRNTYLHWYQQKPGQAPRLLIYKVSNRFPGVPDRFSGSGSGTDFTLKISRVEAEDVGVYYCIQGTSVPFTFGQGTKLEIK | 0 |
| H183/L072 VL A89Q (antibody, name in Kabat numbering, V domains shown, Dual-Ig) VH: QVQLVESGGGLVQPGRSLRLSCAASGFTFSNAWMHWVRQAPGKGLEWVAQIKDKGNAYAAYYAPSVKGRFTISRDDSKNSIYLQMNSLKTEDTAVYYCHYVHYASASTVLPAFGVDAWGQGTTVTVSS VL: DIVMTQSPLSLPVTPGEPASISCQASQELVHMNRNTYLHWYQQKPGQAPRLLIYKVSNRFPGVPDRFSGSGSGTDFTLKISRVEAEDVGVYYCQQGTSVPFTFGQGTKLEIK | 0 |
| H183/L072 VL A89S (antibody, name in Kabat numbering, V domains shown, Dual-Ig) VH: QVQLVESGGGLVQPGRSLRLSCAASGFTFSNAWMHWVRQAPGKGLEWVAQIKDKGNAYAAYYAPSVKGRFTISRDDSKNSIYLQMNSLKTEDTAVYYCHYVHYASASTVLPAFGVDAWGQGTTVTVSS VL: DIVMTQSPLSLPVTPGEPASISCQASQELVHMNRNTYLHWYQQKPGQAPRLLIYKVSNRFPGVPDRFSGSGSGTDFTLKISRVEAEDVGVYYCSQGTSVPFTFGQGTKLEIK | 0 |
| H183/L072 VL A89M (antibody, name in Kabat numbering, V domains shown, Dual-Ig) VH: QVQLVESGGGLVQPGRSLRLSCAASGFTFSNAWMHWVRQAPGKGLEWVAQIKDKGNAYAAYYAPSVKGRFTISRDDSKNSIYLQMNSLKTEDTAVYYCHYVHYASASTVLPAFGVDAWGQGTTVTVSS VL: DIVMTQSPLSLPVTPGEPASISCQASQELVHMNRNTYLHWYQQKPGQAPRLLIYKVSNRFPGVPDRFSGSGSGTDFTLKISRVEAEDVGVYYCMQGTSVPFTFGQGTKLEIK | 0 |
| H183/L072 VL E27aA (antibody, name in Kabat numbering, V domains shown, Dual-Ig) VH: QVQLVESGGGLVQPGRSLRLSCAASGFTFSNAWMHWVRQAPGKGLEWVAQIKDKGNAYAAYYAPSVKGRFTISRDDSKNSIYLQMNSLKTEDTAVYYCHYVHYASASTVLPAFGVDAWGQGTTVTVSS VL: DIVMTQSPLSLPVTPGEPASISCQASQALVHMNRNTYLHWYQQKPGQAPRLLIYKVSNRFPGVPDRFSGSGSGTDFTLKISRVEAEDVGVYYCAQGTSVPFTFGQGTKLEIK | 0.9 |
| H183/L072 VL E27aI (antibody, name in Kabat numbering, V domains shown, Dual-Ig) VH: QVQLVESGGGLVQPGRSLRLSCAASGFTFSNAWMHWVRQAPGKGLEWVAQIKDKGNAYAAYYAPSVKGRFTISRDDSKNSIYLQMNSLKTEDTAVYYCHYVHYASASTVLPAFGVDAWGQGTTVTVSS VL: DIVMTQSPLSLPVTPGEPASISCQASQILVHMNRNTYLHWYQQKPGQAPRLLIYKVSNRFPGVPDRFSGSGSGTDFTLKISRVEAEDVGVYYCAQGTSVPFTFGQGTKLEIK | 0.8 |
| H183/L072 VL E27aD (antibody, name in Kabat numbering, V domains shown, Dual-Ig) VH: QVQLVESGGGLVQPGRSLRLSCAASGFTFSNAWMHWVRQAPGKGLEWVAQIKDKGNAYAAYYAPSVKGRFTISRDDSKNSIYLQMNSLKTEDTAVYYCHYVHYASASTVLPAFGVDAWGQGTTVTVSS VL: DIVMTQSPLSLPVTPGEPASISCQASQDLVHMNRNTYLHWYQQKPGQAPRLLIYKVSNRFPGVPDRFSGSGSGTDFTLKISRVEAEDVGVYYCAQGTSVPFTFGQGTKLEIK | 1.1 |
| H183/L072 VL E27aH (antibody, name in Kabat numbering, V domains shown, Dual-Ig) VH: QVQLVESGGGLVQPGRSLRLSCAASGFTFSNAWMHWVRQAPGKGLEWVAQIKDKGNAYAAYYAPSVKGRFTISRDDSKNSIYLQMNSLKTEDTAVYYCHYVHYASASTVLPAFGVDAWGQGTTVTVSS VL: DIVMTQSPLSLPVTPGEPASISCQASQHLVHMNRNTYLHWYQQKPGQAPRLLIYKVSNRFPGVPDRFSGSGSGTDFTLKISRVEAEDVGVYYCAQGTSVPFTFGQGTKLEIK | 1.1 |
| H183/L072 VL A89V (antibody, name in Kabat numbering, V domains shown, Dual-Ig) VH: QVQLVESGGGLVQPGRSLRLSCAASGFTFSNAWMHWVRQAPGKGLEWVAQIKDKGNAYAAYYAPSVKGRFTISRDDSKNSIYLQMNSLKTEDTAVYYCHYVHYASASTVLPAFGVDAWGQGTTVTVSS VL: DIVMTQSPLSLPVTPGEPASISCQASQELVHMNRNTYLHWYQQKPGQAPRLLIYKVSNRFPGVPDRFSGSGSGTDFTLKISRVEAEDVGVYYCVQGTSVPFTFGQGTKLEIK | 0 |
| H183/L072 VL E27aK (antibody, name in Kabat numbering, V domains shown, Dual-Ig) VH: QVQLVESGGGLVQPGRSLRLSCAASGFTFSNAWMHWVRQAPGKGLEWVAQIKDKGNAYAAYYAPSVKGRFTISRDDSKNSIYLQMNSLKTEDTAVYYCHYVHYASASTVLPAFGVDAWGQGTTVTVSS VL: DIVMTQSPLSLPVTPGEPASISCQASQKLVHMNRNTYLHWYQQKPGQAPRLLIYKVSNRFPGVPDRFSGSGSGTDFTLKISRVEAEDVGVYYCAQGTSVPFTFGQGTKLEIK | 0.9 |
| H183/L072 VL A89K (antibody, name in Kabat numbering, V domains shown, Dual-Ig) VH: QVQLVESGGGLVQPGRSLRLSCAASGFTFSNAWMHWVRQAPGKGLEWVAQIKDKGNAYAAYYAPSVKGRFTISRDDSKNSIYLQMNSLKTEDTAVYYCHYVHYASASTVLPAFGVDAWGQGTTVTVSS VL: DIVMTQSPLSLPVTPGEPASISCQASQELVHMNRNTYLHWYQQKPGQAPRLLIYKVSNRFPGVPDRFSGSGSGTDFTLKISRVEAEDVGVYYCKQGTSVPFTFGQGTKLEIK | 0 |
